In test [1] the target is T1, recombinant tau deletion mutant tau 1-242 (human, UniProt P10636 1-559).
T1 construct: Numbered on tau 2N4R; It was the immunogen for DC2E2
In words: hybridoma screening ELISA on coated tau 1-242. On the procedure:
The plates were blocked with 1% nonfat dried milk to reduce nonspecific binding, washed with PBS-0.05% Tween 20, and incubated with 50 μl/well of hybridoma culture supernatant for 1 hr at 37° C. Bound monoclonal antibodies were detected with sheep anti-mouse immunoglobulin (Ig) conjugated with horse radish peroxidase (HRP, DAKO). The reaction was developed with TMB one (Kem-En-Tec Diagnostics) as a peroxidase substrate and stopped with 50 μl of 2 M H₂SO₄. Absorbance at 450 nm was measured using a Powerwave HT (Bio-Tek). Readouts with an absorbance value of at least twice the value of the negative controls (PBS) were considered positive. Positive hybridoma cultures were further subcloned in soft agar according to the procedure described in Kontsekova et al., One-step method for establishing 8-azaguanine-resistant hybridomas suitable for preparation of triomas, J. Immunol. Methods, 145, 247-250 (1991).
Background: An ELISA detects its analyte on a solid surface through an enzyme-linked reagent.

The target in test [2] is recombinant tau deletion mutant tau 1-136 (human, UniProt P10636 1-387). In words: ELISA, coated recombinant tau proteins, DC2E2 hybridoma supernatant. On the procedure: (§1) Deletion mutants of human tau protein 2N4R were used for epitope mapping of DC2E2 using ELISA (FIG. 2A). Recombinant human tau isoforms 2N4R, 1N4R, 2N3R, 0N4R, 1N3R, 0N3R and tau deletion mutants were prepared as described in Example 1. Microtiter plates were coated overnight at 37° C. with recombinant tau proteins ([…] in PBS, 50 μl/well). The plates were blocked with PBS-Tween20 (0.1% v/v) to reduce nonspecific binding and were incubated with 50 μl/well of DC2E2 hybridoma culture supernatant, for 1 hr at 37° C. Bound monoclonal antibody was detected with sheep anti-mouse Ig HRP-conjugated (DAKO). The reaction was developed with TMB one solution (Kem-En-Tec Diagnostics) as a peroxidase substrate and stopped with 50 μl of 2M H₂SO₄. Absorbance was measured at 450 nm using a Powerwave HT (Bio-Tek). Readouts with an absorbance value of at least twice the value of the negative controls (PBS) were considered positive.
Chain of recombinant tau deletion mutant tau 1-136 (P10636 other isoform, or with tags, fused parts or gaps mutant): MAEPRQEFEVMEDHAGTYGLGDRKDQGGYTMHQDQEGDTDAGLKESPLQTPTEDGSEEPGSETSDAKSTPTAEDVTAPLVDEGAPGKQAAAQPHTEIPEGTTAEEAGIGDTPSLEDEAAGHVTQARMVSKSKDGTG

Test [3] has as its target T2, recombinant tau deletion mutant tau2N4RΔ(134-168) (human, UniProt P10636 1-758).
T2 construct: Tau 2N4R with residues 134-168 deleted; also called tau 2N4R(A134-168)
The test is described as above. The method, then: as §1

Test [4] concerns the target recombinant tau deletion mutant tau 221-441 (unphosphorylated) (human, UniProt P10636 538-758). The test is described as above. The method, then: as §1
In test [5] the target is in vitro phosphorylated tau151-391 (human, UniProt P10636 468-708, phosphorylated in vitro with rat brain kinase extract; the phosphorylated sites are not listed). In words: immunoblot. The method, then:
(§2) Adult rat brain (1 g/2.5 ml) was homogenized in kinase buffer (10 mM TRIS-HCl, pH 7.4; 5 mM EGTA, 2 mM DTT; 1 mM PMSF; 2 mM MgCl₂, leupeptin ([…]), pepstatin ([…]), aprotinin ([…])) and after centrifugation at 100,000×g for 30 min at 4° C. the supernatant (kinase extract) was used for the phosphorylation of tau. The phosphorylation reaction was carried out at 37° C. in 10 mM TRIS-HCl, pH 7.4; 5 mM EGTA, 2 mM DTT; 1 mM PMSF; leupeptin (20 μg/ml); pepstatin (20 μg/ml); aprotinin (20μg/ml); 2 mM ATP; 2 mM MgCl₂ and 10 μM okadaic acid. The brain kinase extract (5μl) was added to 50 μl tau solution (1 μM) and reaction was incubated at 37° C. for 24 h. The phosphorylation of tau was analysed by SDS-PAGE and immunoblotting using rabbit anti-serum raised against six recombinant human tau isoforms (Csokova et al., Rapid purification of truncated tau proteins: model approach to purification of functionally active fragments of disordered proteins, implication for neurodegenerative diseases, Protein Expression and Purification, 35:366-372, 2004).
(§3) Soluble tau proteins were diluted with an equal volume of 2×SDS (sodium dodecylsulfate) sample loading buffer (with β-mercaptoethanol) (Laemmli, 1970) and 250 ng of proteins were loaded per lane. […]

Test [6] addresses T3, in vitro phosphorylated human tau 2N4R (human, UniProt P10636 1-758, phosphorylated in vitro with rat brain kinase extract; the phosphorylated sites are not listed).
T3 construct: also called phosphorylated tau 2N4R; 2N4R in vitro phosphorylated
In words: immunoblot. On the procedure: as §2, §3

In test [7] the target is T4, recombinant human tau isoform 2N3R (human, UniProt P10636-5 2-410).
T4 construct: mature
In words: ELISA, coated recombinant tau protein, hybridoma supernatant. The method, then: as §1

Test [8] addresses recombinant tau deletion mutant tau 1-226 (human, UniProt P10636 1-543). The test is described as above. The method, then:
as §1

Test [9] deals with recombinant tau deletion mutant tau 31-441 (human, UniProt P10636 31-758). Described as above. The method, then: as §1
Chain of recombinant tau deletion mutant tau 31-441 (P10636 other isoform, or with tags, fused parts or gaps mutant): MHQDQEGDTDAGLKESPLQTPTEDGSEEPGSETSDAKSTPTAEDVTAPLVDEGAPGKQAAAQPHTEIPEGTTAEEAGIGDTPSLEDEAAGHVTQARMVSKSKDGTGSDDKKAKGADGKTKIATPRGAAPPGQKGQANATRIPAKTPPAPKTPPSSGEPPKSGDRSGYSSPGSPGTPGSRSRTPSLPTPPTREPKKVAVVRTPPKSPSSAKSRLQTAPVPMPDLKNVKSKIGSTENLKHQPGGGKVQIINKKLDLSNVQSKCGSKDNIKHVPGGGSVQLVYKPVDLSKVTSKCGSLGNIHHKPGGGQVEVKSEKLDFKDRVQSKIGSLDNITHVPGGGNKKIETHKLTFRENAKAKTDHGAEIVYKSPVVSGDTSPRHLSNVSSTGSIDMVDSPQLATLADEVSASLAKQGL
Test [10] has as its target recombinant tau deletion mutant tau 127-441 (human, UniProt P10636 378-758). The test is described as above. The method, then:
as §1

The target of test [11] is T5, recombinant human tau isoform 1N3R (human, UniProt P10636-4 2-381).
T5 construct: mature
T5 sequence (P10636 other isoform, or with tags, fused parts or gaps): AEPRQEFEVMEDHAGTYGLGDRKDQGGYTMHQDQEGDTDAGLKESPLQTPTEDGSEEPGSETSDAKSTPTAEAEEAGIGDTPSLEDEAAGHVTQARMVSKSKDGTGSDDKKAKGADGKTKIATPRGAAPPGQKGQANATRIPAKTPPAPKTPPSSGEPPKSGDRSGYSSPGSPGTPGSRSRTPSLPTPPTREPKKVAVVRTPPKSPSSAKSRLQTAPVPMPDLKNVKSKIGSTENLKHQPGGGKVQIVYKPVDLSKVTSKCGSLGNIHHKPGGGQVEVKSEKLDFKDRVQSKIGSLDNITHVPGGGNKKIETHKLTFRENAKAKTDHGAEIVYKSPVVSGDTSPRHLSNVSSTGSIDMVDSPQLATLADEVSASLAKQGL
The test is described as above. The method, then: as §1

Test [12] deals with recombinant tau deletion mutant tau 99-441 (human, UniProt P10636 99-758). The description is as above. On the procedure: as §1
Chain of recombinant tau deletion mutant tau 99-441 (P10636 other isoform, or with tags, fused parts or gaps mutant): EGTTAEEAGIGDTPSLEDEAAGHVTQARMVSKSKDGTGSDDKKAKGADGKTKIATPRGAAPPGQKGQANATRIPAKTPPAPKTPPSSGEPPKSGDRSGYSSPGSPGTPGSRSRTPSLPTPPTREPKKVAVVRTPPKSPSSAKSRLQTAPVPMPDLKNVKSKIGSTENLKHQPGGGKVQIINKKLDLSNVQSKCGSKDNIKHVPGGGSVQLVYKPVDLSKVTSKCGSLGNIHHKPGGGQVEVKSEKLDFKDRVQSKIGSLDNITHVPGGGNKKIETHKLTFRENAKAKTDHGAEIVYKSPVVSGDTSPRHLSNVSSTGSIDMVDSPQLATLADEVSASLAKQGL
Test [13] has as its target T6, recombinant human tau isoform 0N3R (human, UniProt P10636-2 2-352).
T6 construct: mature
The test is described as above. The method, then: as §1

Test [14] deals with T7, recombinant human tau isoform 0N4R (human, UniProt P10636-6 2-383).
T7 construct: mature
T7 sequence (P10636 other isoform, or with tags, fused parts or gaps): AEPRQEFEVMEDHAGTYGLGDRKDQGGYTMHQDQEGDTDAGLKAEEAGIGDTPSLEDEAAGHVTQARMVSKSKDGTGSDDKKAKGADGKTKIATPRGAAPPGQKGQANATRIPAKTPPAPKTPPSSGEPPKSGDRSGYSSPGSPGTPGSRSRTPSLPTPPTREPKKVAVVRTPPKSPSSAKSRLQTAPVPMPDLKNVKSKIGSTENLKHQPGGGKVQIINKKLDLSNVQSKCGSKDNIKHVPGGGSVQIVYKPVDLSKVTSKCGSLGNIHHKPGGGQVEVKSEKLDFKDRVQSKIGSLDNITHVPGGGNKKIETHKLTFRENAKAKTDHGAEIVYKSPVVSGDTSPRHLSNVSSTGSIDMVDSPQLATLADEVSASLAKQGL
The description is as above. The method, then: as §1

The target of test [15] is recombinant truncated tau151-391 (unphosphorylated) (human, UniProt P10636 468-708). The test is described as above. On the procedure: as §1
Chain of recombinant truncated tau151-391 (unphosphorylated) (P10636 468-708 I625L): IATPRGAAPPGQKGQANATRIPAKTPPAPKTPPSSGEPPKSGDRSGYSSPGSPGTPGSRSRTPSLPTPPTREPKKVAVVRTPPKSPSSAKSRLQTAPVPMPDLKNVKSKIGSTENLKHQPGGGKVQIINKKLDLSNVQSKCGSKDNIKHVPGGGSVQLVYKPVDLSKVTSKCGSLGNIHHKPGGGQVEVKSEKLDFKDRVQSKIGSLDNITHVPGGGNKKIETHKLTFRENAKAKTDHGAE
Test [16] has as its target T8, recombinant human tau isoform 1N4R (human, UniProt P10636-7 2-412).
T8 construct: mature
The description is as above. The method, then:
as §1

For test [17], the target named is T9, in vitro phosphorylated tau 2N4R point mutant Thr217Ala (human, UniProt P10636 1-758, phosphorylated in vitro with rat brain kinase extract; sites not listed).
T9 construct: also called Thr217A1a
In words: immunoblot of in vitro phosphorylated tau 2N4R point mutants. On the procedure:
Soluble tau proteins were diluted with an equal volume of 2×SDS (sodium dodecylsulfate) sample loading buffer (with β-mercaptoethanol) (Laemmli, 1970) and 250 ng of proteins were loaded per lane. For insoluble PHF-tau, the pellets were dissolved in 1×SDS-sample loading buffer, in 1/50 volume of the soluble fraction used for the preparation of the insoluble tau fraction. Then, equal volumes of soluble tau and sarkosyl-insoluble tau fractions were used for immunoblotting, which corresponded to 15 μg of total protein in the soluble fraction (see Filipcik et al. 2010). Samples were heated at 95° C. for 5 min, loaded onto 5-20% gradient SDS polyacrylamide gels, and electrophoresed in a Tris-glycine-SDS buffer system for 40 minutes at 25 mA. Proteins were transferred to a polyvinylidene fluoride (PVDF) membrane (1 h at 150 mA in 10 mM CAPS, pH 12). […] The blots were developed with SuperSignal West Pico Chemiluminescent Substrate (Pierce, U.S.A), and the protein signals detected using a LAS3000 imaging system (FUJI Photo Film Co., Japan). The chemiluminescence signal intensities were quantified using AIDA (Advanced Image Data Analyzer, Raytest, Straubenhardt, Germany) software. […]
(In general: Immunoblotting shows a protein as a band on a membrane.)

The target of test [18] is in vitro phosphorylated tau deletion mutant tau 221-441 (human, UniProt P10636 538-758, phosphorylated in vitro with rat brain kinase extract; sites not listed). In words: immunoblot of in vitro phosphorylated tau deletion mutants.
Chain of in vitro phosphorylated tau deletion mutant tau 221-441 (P10636 other isoform, or with tags, fused parts or gaps mutant): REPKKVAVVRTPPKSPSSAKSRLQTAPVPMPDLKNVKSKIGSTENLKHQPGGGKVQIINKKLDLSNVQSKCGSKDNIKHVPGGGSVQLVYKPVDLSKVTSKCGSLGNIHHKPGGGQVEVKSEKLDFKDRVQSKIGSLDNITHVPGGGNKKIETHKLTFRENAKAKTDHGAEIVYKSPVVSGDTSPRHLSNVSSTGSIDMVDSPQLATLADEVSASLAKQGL

From patent US20210139568A1 (AXON NEUROSCIENCE, published 2021) come the findings set out here.

T3 sequence (P10636 other isoform, or with tags, fused parts or gaps limits assumed): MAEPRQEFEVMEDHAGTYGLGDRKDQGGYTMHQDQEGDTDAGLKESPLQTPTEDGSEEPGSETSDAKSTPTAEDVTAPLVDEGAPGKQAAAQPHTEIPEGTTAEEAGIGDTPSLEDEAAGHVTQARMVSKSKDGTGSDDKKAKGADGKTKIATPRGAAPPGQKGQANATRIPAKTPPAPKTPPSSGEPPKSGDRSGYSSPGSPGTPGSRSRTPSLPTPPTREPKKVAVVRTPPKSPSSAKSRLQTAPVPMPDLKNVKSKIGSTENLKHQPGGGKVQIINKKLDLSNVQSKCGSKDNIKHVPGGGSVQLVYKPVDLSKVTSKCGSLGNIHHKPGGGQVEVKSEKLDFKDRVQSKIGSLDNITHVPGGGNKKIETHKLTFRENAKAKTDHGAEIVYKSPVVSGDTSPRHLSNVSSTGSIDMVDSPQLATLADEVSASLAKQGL
T8 sequence (P10636 other isoform, or with tags, fused parts or gaps): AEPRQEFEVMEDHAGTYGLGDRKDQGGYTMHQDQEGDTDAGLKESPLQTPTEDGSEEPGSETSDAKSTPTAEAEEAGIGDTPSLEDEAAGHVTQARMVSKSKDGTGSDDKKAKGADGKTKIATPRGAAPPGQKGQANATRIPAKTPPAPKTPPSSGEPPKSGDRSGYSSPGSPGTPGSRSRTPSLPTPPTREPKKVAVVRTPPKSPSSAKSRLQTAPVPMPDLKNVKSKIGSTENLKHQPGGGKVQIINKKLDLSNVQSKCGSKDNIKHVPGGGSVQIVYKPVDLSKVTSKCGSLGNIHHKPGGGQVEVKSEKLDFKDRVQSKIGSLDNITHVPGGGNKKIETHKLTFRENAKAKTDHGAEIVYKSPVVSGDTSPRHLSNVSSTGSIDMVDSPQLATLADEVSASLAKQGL
T1 sequence (P10636 other isoform, or with tags, fused parts or gaps mutant): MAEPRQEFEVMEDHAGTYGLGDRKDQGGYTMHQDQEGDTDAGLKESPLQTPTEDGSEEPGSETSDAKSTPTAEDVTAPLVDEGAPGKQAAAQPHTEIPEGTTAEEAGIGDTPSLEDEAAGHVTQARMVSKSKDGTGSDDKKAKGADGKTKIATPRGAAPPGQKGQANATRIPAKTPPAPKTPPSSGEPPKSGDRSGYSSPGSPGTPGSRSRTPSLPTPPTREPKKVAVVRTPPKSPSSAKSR
T2 sequence (P10636 other isoform, or with tags, fused parts or gaps mutant): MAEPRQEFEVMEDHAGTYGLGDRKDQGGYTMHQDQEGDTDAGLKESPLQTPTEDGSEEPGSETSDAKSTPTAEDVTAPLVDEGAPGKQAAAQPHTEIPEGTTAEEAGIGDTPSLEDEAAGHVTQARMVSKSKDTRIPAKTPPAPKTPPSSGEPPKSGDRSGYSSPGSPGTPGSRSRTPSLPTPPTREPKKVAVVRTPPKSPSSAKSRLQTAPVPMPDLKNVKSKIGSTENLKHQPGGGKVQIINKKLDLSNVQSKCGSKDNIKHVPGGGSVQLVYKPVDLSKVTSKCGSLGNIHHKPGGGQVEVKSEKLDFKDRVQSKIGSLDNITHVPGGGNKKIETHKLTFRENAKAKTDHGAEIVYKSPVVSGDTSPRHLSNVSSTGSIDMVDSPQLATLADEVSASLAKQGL
Chain of in vitro phosphorylated tau151-391 (P10636 468-708 I625L): as the sequence (P10636 468-708 I625L) above
Chain of recombinant tau deletion mutant tau 127-441 (P10636 other isoform, or with tags, fused parts or gaps mutant): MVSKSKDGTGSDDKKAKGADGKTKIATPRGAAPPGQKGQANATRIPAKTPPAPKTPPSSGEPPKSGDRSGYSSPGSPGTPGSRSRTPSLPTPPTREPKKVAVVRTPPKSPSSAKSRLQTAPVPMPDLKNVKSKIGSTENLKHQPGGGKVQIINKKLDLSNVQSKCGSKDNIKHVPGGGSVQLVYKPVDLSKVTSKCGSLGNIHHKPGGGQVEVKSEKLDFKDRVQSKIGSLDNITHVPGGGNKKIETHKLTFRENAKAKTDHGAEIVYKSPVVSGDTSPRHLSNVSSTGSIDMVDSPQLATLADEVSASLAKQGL
Chain of recombinant tau deletion mutant tau 1-226 (P10636 other isoform, or with tags, fused parts or gaps mutant): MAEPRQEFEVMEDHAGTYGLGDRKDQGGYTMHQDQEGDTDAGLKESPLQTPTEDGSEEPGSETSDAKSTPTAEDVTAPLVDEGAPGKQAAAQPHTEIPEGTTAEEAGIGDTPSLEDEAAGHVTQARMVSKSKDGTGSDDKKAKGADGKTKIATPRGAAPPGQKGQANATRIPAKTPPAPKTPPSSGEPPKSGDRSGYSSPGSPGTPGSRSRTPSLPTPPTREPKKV

B1: monoclonal antibody DC2E2 (antibody, V domains shown)
VH: EVQLQQSGAELVRPGALVKLSCKASGFNIKDYYMHWVRQRPDQGLEWIGWLDPENDHTIYDPRFQDRANLTADTSSNTAYLQLSSLTSEDTAVYYCSYYKYDDYWGQGTTLTVS
VL: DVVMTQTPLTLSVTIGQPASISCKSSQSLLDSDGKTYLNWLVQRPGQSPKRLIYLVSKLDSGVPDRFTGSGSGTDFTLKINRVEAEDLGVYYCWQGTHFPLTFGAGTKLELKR
notes: Used as hybridoma supernatant or Protein G purified; biotinylated as detector in the digital ELISA
Take B1: the binding result in test [1] was “binds”; in test [2], “no binding”; in [3], “no binding”; in [4] it was “no binding”; in test [5], “binds”; in test [6] it was “binds”. The binding result in test [7], in [8], in test [9], in test [10], in [11] and in [12] was “binds” throughout. Further, the binding result in [13], in test [14], in test [15] and in [16] was “binds” throughout.

B2: monoclonal antibody DC2E7 (antibody, mouse IgG2a, V domains shown)
VH: DVQLVESGGGLVQPGGSRKLSCAASGFTFSSFGMHWVRQAPEKGLEWVAYISGDSNTIYYADTVKGRFTISRDNPKNTLFLQMTSLRSEDTAIYYCARTLAYWGQGTLVTVS
VL: DIQMTQSSSSFSVSLGDRVTITCKASEDIYNRLAWYQQTPGNAPSLLISGASGLETGVPSRFSGSGSGRDYTLSITSLQTEDVATYYCLQYWSIPWTFGGGTKLEIKR
notes: also called DC217 (apparent misprint)
For the molecule B2, the binding result in test [17] and in test [18] was “no binding” each time.
